For this series the following is noted: Escherichia coli (strain K12); pH 7.2; Thermal; DSC; Sodium phosphate 1 mM; reversible: yes; whole UniProt chain shown.

The results in this text go back to FireProtDB (doi:10.1016/0003-9861(92)90047-z).

B1: Tryptophan synthase alpha chain wild type, P0A877 (protein)
chain: MERYESLFAQLKERKEGAFVPFVTLGDPGIEQSLKIIDTLIEAGADALELGIPFSDPLADGPTIQNATLRAFAAGVTPAQCFEMLALIRQKHPTIPIGLLMYANLVFNKGIDEFYAQCEKVGVDSVLVADVPVEESAPFRQAALRHNVAPIFICPPNADDDLLRQIASYGRGYTYLLSRAGVTGAENRAALPLNHLVAKLKEYNAAPPLQGFGISAPDQVKAAIDAGAAGAISGSAIVKIIEQHINEPEKMLAALKVFVQPMKAATRS
With B1, the Tm turned out to be 59.5 °C.

Broadly, the Tm is the temperature at which the thermal transition is half complete.
